Assay results: the supplement of paper PMC10567573

B1: FAM189A2 (parent)
chain: CALNALTTTVCLVAAALRYLQIFA

Variants of: B1
Assay: protein stability index of a GFP-peptide fusion (GPS, HEK-293T) (PSI 1-6); higher = more stable
Details: c terminus: a fixed tail appended
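Note: lentivirally expressed fusions sorted by FACS into six bins by GFP to DsRed ratio, PSI derived from sequencing read proportions per bin multiplied by bin number.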

Variant | protein stability index
CALNALTTTVCGVAAALRYLQIFA | 3.05
CALNALTTTVCCVAAALRYLQIFA | 2.39
CALNALTTTVCAVAAALRYLQIFA | 3.5
CALNALTTTVCHVAAALRYLQIFA | 3.28
CALNALTTTVCIVAAALRYLQIFA | 3.35
CALNALTTTVCNVAAALRYLQIFA | 4.01
CALNALTTTVCEVAAALRYLQIFA | 1.51
CALNALTTTVCRVAAALRYLQIFA | 2.39
CALNALTTTVCWVAAALRYLQIFA | 3.65
CALNALTTTVCKVAAALRYLQIFA | 2.3
CALNALTTTVCPVAAALRYLQIFA | 3.76
CALNALTTTVCYVAAALRYLQIFA | 3.88
CALNALTTTVCTVAAALRYLQIFA | 2.96
CALNALTTTVCLVAACLRYLQIFA | 4.04
CALNALTTTVCLVAANLRYLQIFA | 2.1
CALNALTTTVCLVAALLRYLQIFA | 3.09
CALNALTTTVCLVAATLRYLQIFA | 1.94
CALNALTTTVCLVAARLRYLQIFA | 3.06
CALNALTTTVCLVAAILRYLQIFA | 4.22
CALNALTTTVCLVAADLRYLQIFA | 3.52
CALNALTTTVCLVAAHLRYLQIFA | 3.78
CALNALTTTVCLVAAFLRYLQIFA | 2.55
CALNALTTTVCLVAAWLRYLQIFA | 1.55
CALNALTTTVCLVAAVLRYLQIFA | 3.33

Variant | protein stability index
CALNALTTTVCLVAASLRYLQIFA | 2.97
CALNALTTTVCLVAAKLRYLQIFA | 4.22
CALNALTTTVCLVAAELRYLQIFA | 3.27
CALNALTTTVCLVAAPLRYLQIFA | 2.79
CALNALTTTVCLVKAALRYLQIFA | 2.69
CALNALTTTVCLVLAALRYLQIFA | 3.6
CALNALTTTVCLVHAALRYLQIFA | 4.41
CALNALTTTVCLVMAALRYLQIFA | 3.17
CALNALTTTVCLVCAALRYLQIFA | 4.5
CALNALTTTVCLVRAALRYLQIFA | 2.23
CALNALTTTVCLVQAALRYLQIFA | 2.2
CALNALTTTVCLVWAALRYLQIFA | 1.93
CALNALTTTVCLVEAALRYLQIFA | 3.46
CALNALTTTVCLVVAALRYLQIFA | 1.9
CALNALTTTVCLVNAALRYLQIFA | 3.17
CALNALTTTVCLVFAALRYLQIFA | 3.14
CALNALTTTVCLVTAALRYLQIFA | 3.07
CALNALTTTVCLVIAALRYLQIFA | 3.7
CALNALTTTVCLVGAALRYLQIFA | 2.74
CALNALTTTVCLVSAALRYLQIFA | 4.79
CALNALTTTVCLVPAALRYLQIFA | 3.27
CALNALTTTVCLVAHALRYLQIFA | 2.6
CALNALTTTVCLVAYALRYLQIFA | 3.03
CALNALTTTVCLVAIALRYLQIFA | 3.05

Variant | protein stability index
CALNALTTTVCLVAFALRYLQIFA | 4.15
CALNALTTTVCLVAMALRYLQIFA | 3.68
CALNALTTTVCLVANALRYLQIFA | 3.15
CALNALTTTVCLVAWALRYLQIFA | 2.59
CALNALTTTVCLVADALRYLQIFA | 3.14
CALNALTTTVCLVAKALRYLQIFA | 2.76
CALNALTTTVCLVASALRYLQIFA | 3.48
CALNALTTTVCLVARALRYLQIFA | 2.41
CALNALTTTVCLVATALRYLQIFA | 1.8
CALNALTTTVCLVAGALRYLQIFA | 2.9
CALNALTTTVCLVACALRYLQIFA | 2.71
CALNALTTTVCLVAQALRYLQIFA | 2.05
CALNALTTTVCLVAVALRYLQIFA | 3.64
CALNALTTTVCLVALALRYLQIFA | 2.19
CALNALTTTLCLVAAALRYLQIFA | 3.21
CALNALTTTSCLVAAALRYLQIFA | 4.12
CALNALTTTCCLVAAALRYLQIFA | 1.42
CALNALTTTKCLVAAALRYLQIFA | 2.08
CALNALTTTHCLVAAALRYLQIFA | 3.15
CALNALTTTICLVAAALRYLQIFA | 2.3
CALNALTTTDCLVAAALRYLQIFA | 4.46
CALNALTTTNCLVAAALRYLQIFA | 2.53
CALNALTTTWCLVAAALRYLQIFA | 2.05
CALNALTTTACLVAAALRYLQIFA | 2.46

Variant | protein stability index
CALNALTTTRCLVAAALRYLQIFA | 1.62
CALNALTTTGCLVAAALRYLQIFA | 4.6
CALNALTTTTCLVAAALRYLQIFA | 2.65
CALNALTTTFCLVAAALRYLQIFA | 1.53
CALNALTTTECLVAAALRYLQIFA | 3.04
CALNALTTTPCLVAAALRYLQIFA | 2.12
CALNALTTTMCLVAAALRYLQIFA | 1.98
CALNALTTTQCLVAAALRYLQIFA | 4.03
CALNYLTTTVCLVAAALRYLQIFA | 3.68
CALNRLTTTVCLVAAALRYLQIFA | 2.98
CALNFLTTTVCLVAAALRYLQIFA | 2.29
CALNELTTTVCLVAAALRYLQIFA | 3.02
CALNQLTTTVCLVAAALRYLQIFA | 3.79
CALNMLTTTVCLVAAALRYLQIFA | 3.65
CALNVLTTTVCLVAAALRYLQIFA | 1.92
CALNNLTTTVCLVAAALRYLQIFA | 2.07
CALNSLTTTVCLVAAALRYLQIFA | 3.5
CALNILTTTVCLVAAALRYLQIFA | 3.46
CALNPLTTTVCLVAAALRYLQIFA | 2.7
CALNKLTTTVCLVAAALRYLQIFA | 4.99
CALNTLTTTVCLVAAALRYLQIFA | 3.6
CALNLLTTTVCLVAAALRYLQIFA | 2.77
